± gives the uncertainty stated by the source.

This data set can be described thus: amyloid nucleation score (Sup35N fusion, yeast selection) (log enrichment); library NNK3; higher = more nucleation; inactive = no reads after selection. The gist of the method: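 DiMSum was used to calculate nucleation scores as log enrichment of output over input reads, centred on the mode score of non-aggregating sequences. Sequences with fewer than 100 input reads were not scored. Input and output came from Illumina sequencing of plasmid inserts in psi-negative yeast expressing peptides of 20 random codons fused to Sup35N, induced 24 hours with 100 μM copper sulfate and then grown 7 days at 30°C on medium lacking adenine and uracil.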
As to SQGQY, the amyloid nucleation score is -0.672 ± 1.4. For SQSFYLFLGQRSRTY the value was 1.33 ± 0.11; for SQSNGFGFFYMMSLVSWVDV, “inactive”. To SRCFLKKYCFLMTSILVRGI belongs “inactive”; to SRCIFIIVIVSGSYGFSVSN, 1.14 ± 0.13. For SREDCGGI the value was “inactive”; for SRFLSIRELRFWYSMNRWGI, “inactive”; for SRGCRTTYRQEWECIQCLKW, “inactive”. Consider SRIFSGISPDVTDPS, for which the amyloid nucleation score result is “inactive”. To SRILRLRVSSSHVERYFKLF belongs “inactive”; to SRKALVYGSVKRLSIMSAWV, -0.626 ± 0.96. For SRMPCRFM the value was “inactive”; for SRMSGLWD, “inactive”.

On to SRNMLH, for which the amyloid nucleation score entry was “inactive”.

For the substance SRNVLYLVIKIYFEDFNPLS, the amyloid nucleation score result was “inactive”. To SRPILLLSFCFRCAIC belongs “inactive”; to SRRFYLYYFCWYSVVMFIHG, “inactive”; to SRRNTFAVGNFNSVLLN, “inactive”.

Take SRRSCYVIAYELV: the amyloid nucleation score result is “inactive”. To SRRVRAYIRVFGLCKGFAEC belongs “inactive”.

For SRSAY, the amyloid nucleation score entry is “inactive”.

Turning to SRVSPMFKIRIWNWIPAWAT, the amyloid nucleation score result is “inactive”. To SRVWTISWLNDGVGGRTQAE belongs “inactive”. To SRVYAKGRKNTSQFCSGGYS belongs “inactive”. For SRWPGHNYISQYGGYLLIFY the value was 2.02 ± 0.071. Consider SRYLLADSFFRASAVWDVSE, for which the amyloid nucleation score result is “inactive”. To SSACISCYVSMLWYDVLFKV belongs 0.345 ± 0.23; to SSAIYVMRLPQCMAECSRPR, “inactive”.

For the substance SSCKDPRRKE, the amyloid nucleation score result is “inactive”. For SSCPYIFYQLST the value was “inactive”. SSDDFSWTIRMRRSEFTSHG: the amyloid nucleation score result is “inactive”. For SSDQRASPGWGFLFHKCAQV the value was “inactive”; for SSEPMHLEASIPVFAKE, “inactive”.

Substance SSERGMLVDNVLSHSWMFCI yielded an amyloid nucleation score of 1.35 ± 0.13. For SSEVYQALPPMS the value was “inactive”.

The substance SSFEFVE displayed an amyloid nucleation score of 0.698 ± 0.22. To SSFPYFTTYVHHVG belongs “inactive”; to SSKFRRLLGVIMMADLMQVY, “inactive”; to SSLETLSSLFLIRLMELVSR, “inactive”.

Turning to SSLLSEWNGGKSYNSVVDEV, the amyloid nucleation score entry is “inactive”. To SSMGVVSVRAN belongs “inactive”. To SSMSSTSALLYMHDNFWCAI belongs “inactive”. To SSNDVVTSYRILCKVSTKAT belongs -0.622 ± 0.66; to SSNESGLSFGSEFHMLGWHG, 0.075 ± 0.35. With SSNLFVHHTSFTWASSTPHR, the amyloid nucleation score entry is “inactive”. For SSNLNRFSITVFVVERHHQF the value was “inactive”; for SSNYNLKTLNSISRFFDLES, “inactive”.

As to SSSCVSSGCDVWA, the amyloid nucleation score entry was “inactive”. To SSSDCGNMNTTPRWAGGIGA belongs “inactive”.

Regarding SSSGY, the amyloid nucleation score is -0.007 ± 1. To SSSPVMYCMFLRSRSGRDYK belongs “inactive”.

Consider SSSTKGFVNVDKSLASW, for which the amyloid nucleation score entry was “inactive”. For SSTGSLIPQPAFSYFCTATP the value was “inactive”; for SSTYSGCWLVLSIKRFVLIE, “inactive”. For SSVDSSFANCCVISKRNHML the value was “inactive”. For SSVGMARAYL the value was -1.17 ± 1.9; for SSVKRYLAVRWCSESMHTRW, “inactive”; for SSYGSPIIVLNTHSTVGIRI, 1.59 ± 0.11.

Consider SSYLDTNWRMP, for which the amyloid nucleation score entry was “inactive”. For SSYLPHHISSQRLSSQEPAD the value was “inactive”; for STCRWLFNNA, 0.257 ± 0.16.

On to STGWSMLVFRTRCYLFSFSG, for which the amyloid nucleation score result is “inactive”.

Turning to STGYYVMDVYLTVAYYVDSN, the amyloid nucleation score result is “inactive”. Regarding STITYHLDIEVRKCWVFYMY, the amyloid nucleation score entry is “inactive”. To STLILNRLYCFNLISLASLS belongs 0.56 ± 0.2; to STLVFPLKFFELCSKD, “inactive”. For STMDSIYQFL the value was “inactive”; for STQGCLCRYPG, -0.333 ± 0.88. As to STQNGYRQNEFSRSRMMAPD, the amyloid nucleation score result is “inactive”. To STRRILCIP belongs -0.381 ± 0.8. For STSRGNRFACPCFDYCWFRE the value was -0.598 ± 1.1; for STVSYGVGHQNM, “inactive”. To STWGEFVH belongs “inactive”; to STWTG, “inactive”; to STYRHLDRSL, “inactive”.

On to STYVCDGIDG, for which the amyloid nucleation score entry was “inactive”. To SVDDSFLYLYRYKGFCPNF belongs “inactive”; to SVDVMTGLPTWSYLCDDETR, 2.2 ± 0.06; to SVDWYNFECSIASPF, “inactive”. To SVEMIPDSGLSVRMGFEGLV belongs “inactive”; to SVGHSFERKWSGCHWEISNL, “inactive”; to SVGRYA, -0.306 ± 0.41.

With SVGVFVYLKLINLIVLGGRG, the amyloid nucleation score entry is “inactive”. As for SVHWEVRFYMDRYVLAYAVT, the amyloid nucleation score result was “inactive”. For SVIILYRCSFRGWRSHASGN the value was 1.05 ± 0.1; for SVILCFSV, “inactive”. For SVKNWPNVN the value was “inactive”; for SVKVPWWDCINVRAHMWRMV, “inactive”. To SVLICINCNVEHV belongs 2.44 ± 0.083.

Take SVLRYYSNESRLTVHLSVCI: the amyloid nucleation score result was “inactive”. SVLYRWGYRTGWEL had an amyloid nucleation score of 0.128 ± 0.52.

With SVNVHCIREPWVADWTCCRL, the amyloid nucleation score amounted to 1.18 ± 0.16.

Regarding SVRYVETYSHRTNTVDAAFV, the amyloid nucleation score result was “inactive”. To SVSARSRRLWGSMRIAVTVF belongs “inactive”; to SVSGRPGEMFSRYYWIYGMY, “inactive”. For SVSLAHFGSRKLVFSG, the amyloid nucleation score result was “inactive”. To SVSLLLRFVILLCTFVQYGW belongs “inactive”. For SVSNPRNRT the value was “inactive”; for SVYGACSRFPTNVVYNRSEY, “inactive”; for SVYPVFPTLFNSSYFSGTFG, “inactive”.

Take SWASQWLFTPLSTVRSYIIL: the amyloid nucleation score entry is “inactive”. For SWFGGRDYYKMHIVSG the value was “inactive”. For SWFSVLLGLRTSRVIANSTY the value was “inactive”; for SWMDRILVRYWVVLDNRNFV, “inactive”; for SWNTL, “inactive”. On to SWSRYYCLYCG, for which the amyloid nucleation score stood at 2.97 ± 0.068. To SWVGTG belongs -0.331 ± 0.84; to SWVRMYIGEFLVSRCQMWST, “inactive”; to SWVRTGFL, “inactive”.

Turning to SYCATCHIPRENMSLQCVME, the amyloid nucleation score was determined as 1.3 ± 0.1. For SYDFIMVLPHEDRIDIVQQF the value was “inactive”; for SYFDIFGTTDQVSVKSRMCT, “inactive”; for SYFFVIQGQLGCITGVDFIW, “inactive”. For SYGLFR the value was “inactive”; for SYGTSGCRRLVLWTYDSKFI, “inactive”; for SYISNP, “inactive”.

On to SYLCVATWSCPHYVGFSQHI, for which the amyloid nucleation score entry was “inactive”. For SYMGHV the value was 0.506 ± 0.43.

For SYNYRGADRWLT, the amyloid nucleation score result was “inactive”. For SYRAARNFHMFLLYWHGTRW the value was “inactive”.

On to SYRCMSESRFYYFLSCHARR, for which the amyloid nucleation score entry is “inactive”.

In the case of SYRPMHTDGLSLYSRQNLSY, the amyloid nucleation score result is “inactive”. As to SYSFEYNHSDKFVSLYYMDI, the amyloid nucleation score result was “inactive”. As for SYSHYFILHHLRDSELSHCS, the amyloid nucleation score entry was “inactive”.

As for SYSIWSLLEIDF, the amyloid nucleation score result is “inactive”. To SYSSMCLPKNTKAHASWC belongs “inactive”; to SYVDLYVGWLNSWMYVMRSA, “inactive”.

In the case of TACMRNVRTNIGKHTSQYLH, the amyloid nucleation score entry was “inactive”. As for TADIESMIMFNGRVPGHLSV, the amyloid nucleation score result was “inactive”. To TAESKRH belongs “inactive”; to TAKPYRDDNNGYSAYIHPCS, “inactive”. To TAMYVMSFCW belongs “inactive”.

Source of the values: the supplement of paper PMC12042874.
